Results: patent publication US8673313B2, “Cell penetrating peptides and its use fused to biomolecules with therapeutic action” (priority 2007, dated 2014)

Experiments:
[1] = tested on: cellular immune response against the antigen E7 de HPV-16; experiment: ELISPOT anti-IFN-γ of splenocytes of immunized mice; type: in vivo, mice C57BL/6; conditions: 30 μg s.c., 2 doses every 14 days, without adjuvant
Method: In order to evaluate the cellular immune response against the antigen E7 de HPV-16, 4 groups of 3 mice females C57BL/6, from 6 to 8 weeks of born, received 2 doses of immunogens. The group 1 was immunized with the 30 μg of the recombinant protein LALF-E7; group 2 with the 30 μg of the recombinant protein E7; group 3 with 8 μg of synthetic peptide LALF and group 4 with PBS. The immunizations were made of subcutaneous way in the flank of the animal with volumes of 0.2 mL and without adjuvant. Every 14 days were administered two doses. Seven days after the second immunization, the mice were sacrificed by break-up of the cervical and the splenocytes were removed aseptically for their later analysis in a test of ELISPOT anti-gamma interferon (anti-IFN-γ). The cellular suspensions of the animals by each group met in pool and they were homogenized smoothly. […]
The test for the determination of the IFN-γ secretion was made as described previously (Vazquez-Blomquist D. et al. (2002) Induction of a strong HIV-specific CD8+ T cell response in mice using a fowlpox virus vector expressing an HIV-1 multi-CTL-epitope polypeptide. Viral Immunol. 5(2):337-356). […] After this time, the surviving cells counted and were used for determinations of ELISPOT under the same conditions.
The results were expressed as a number of spot forming cells (SFC) per 10^6 splenocytes. […]

[2] = tested on: TC-1 tumor cell line expressing the HPV16 E7 protein; experiment: Treatment of established TC-1 tumors in mice, fusion versus mix (Example 9); type: in vivo, Mice C57BL/6; conditions: two immunizations every 14 days from day 10, volume at the 30 days, p<0.01 vs LALF+E7, LALF, E7 and PBS, FIG. 8
Method: To study whether the antitumor effect of LALF-E7 was associated with the covalent bond of both molecules, we carried out experiments in which mice were treated for LALF and E7, which were mixed at the time prior to their use at equal molarity that would allow a comparison with mice that received the fusion protein LALF-E7.
In this realization, Mice C57BL/6 was inoculated with 2×10^5 cells by subcutaneous injection in right leg in volumes of 0.2 mL. To the 10 days, when all the animals had developed palpable tumors, the animals were assigned arbitrarily to five groups of treatments. Each group included 10 animals.
Two immunizations, every 14 days were made. The group 1 was immunized with the recombinant protein LALF-E7; group 2 with the mix LALF+E7: recombinant protein E7; group 3 with synthetic peptide LALF; group 4 with recombinant protein E7 and group 5 with PBS. The tumor kinetic in the different groups was followed as previously described in the example 8. The volume average of each group +/− the standard deviation at the 30 days is represented in the FIG. 8.

B1: LALF-E7: recombinant fusion of CPP LALF to E7 protein of HPV 16, cysteine per glycine in Rb site (SEQ ID N0. 9 y 10) (protein)
chain: MAEFHYRIKPTFRRLKWKYKGKFWKASHGDTPTLHEYMLDLQPETTDLYGYEQLNDSSEEEDEIDGPAGQAEPDRAHYNIVTFCCKCDSTLRLCVQSTHVDIRTLEDLLMGTLGIVCPICSQKPGSRAHHHHHH
modifications: Artificial Sequence Description Protein fusion CPP LALF-E7
T CD8+ lymphocyte response [1]: effective response of T CD8^+ lymphocytes
number of SFC (IFN-γ secretor cells) relative to the groups immunized with VSSP and PBS ([1]; splenocytes 7 days after second immunization, FIG. 9): ~8 times
effect on volume of established tumors [2]: effects in reducing the volume of tumors
